Results on one protein are retold here after publication PMC11838356 (bioRxiv, 2025).

The data set deals with the molecule itself. As to the kind of experiment: cryo-EM structure.

B1: ArnC from Salmonella enterica (ArnCSe) (enzyme, UniProt O52324 1-327, looked up)
chain: MFDAAPIKKVSVVIPVYNEQESLPELIRRTTTACESLGKAWEILLIDDGSSDSSAELMVKASQEADSHIISILLNRNYGQHAAIMAGFSHVSGDLIITLDADLQNPPEEIPRLVAKADEGFDVVGTVRQNRQDSLFRKSASKIINLLIQRTTGKAMGDYGCMLRAYRRPIIDTMLRCHERSTFIPILANIFARRATEIPVHHAEREFGDSKYSFMRLINLMYDLVTCLTTTPLRLLSLLGSVIAIGGFSLSVLLIVLRLALGPQWAAEGVFMLFAVLFTFIGAQFIGMGLLGEYIGRIYNDVRARPRYFVQQVIYPESTPFTEESHQ
For the protein B1, the stoichiometry N (commonly the number of molecules, sites or subunits per partner or assembly) came out at 4.
